Laboratory results: the nanobody polyreactivity screen of Harvey et al. (2022)

assay: yeast display, Sf9 membrane polyspecificity reagent, FACS + sequencing; frameworks hold sequencing errors
In short: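 Sorting gates, low and high (top ~1%), were placed on anti-HA fluorescence to track expression and on streptavidin fluorescence to track reagent binding. A clone's polyreactivity label is taken from the gate it came out of. The reagent was 10% biotinylated, detergent-solubilized Sf9 membrane, applied for 1 hour at 4 °C to galactose-induced yeast display cells.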

Q: Which “polyreactivity (PSR sort gate)” value does the source give for “QVQLVESGGGLVQAGGSLRLSCAASGIFRGYAMGWYRQAPGKERELVAAISWGGGSTYYADSVKGRFTISRDNAKNTVYLQMNSLKPEDTAVYYCIAADFGWDYAYYYWGQGTQVTVSS” here?
A: low polyreactivity

Q: With “QVQLVESGGGLVQAGGSLRLSCAASGRTFPYYVMGWYRQAPGKERELVAAISTTGGSTYYADSVKGRFTISRDNAKNTVYLQMNSLKPEDTAVYYCAARRLIRDNLGYDYWGQGTQVTVSS” as the sequence, how does the “polyreactivity (PSR sort gate)” value read?
A: high polyreactivity

Q: Which “polyreactivity (PSR sort gate)” value does the source give for “QVQVVESGGGLVQEGGSLRLSCAASGSTFGINAMGWYRPAPGKEREWVAAITSTGRTYYADSVKGRFTNSRDNAKNTVYLQMNSLKPEDTAVYYCAAVWRYKGLLLPSYYYWGQGTQVTVSS” here?
A: high polyreactivity

Q: For “QVQLVESGGGLVQAGGSLRLSCAASGSIFSRYAMGWYRQAPAKERELVAASSSRGGSTYYADSVKGRFTISRDNAKNTVYLQMNSLKTEDTAVYYCAAQAPDTPSLDEGDFWGQGTQVTVSS”, which “polyreactivity (PSR sort gate)” value is on record?
A: high polyreactivity

Q: With “QVQLVESGGGLVQAGGSLRLSCAASGSTFYPYAMGWYSQAPGKERELVAAISSGGSTSYADSVKGRFTISRDNAKNTVYLQMNSLKPEDTAVYYCNASSPGAVPVYDYDYWGQGTQVTVSS” as the sequence, how does the “polyreactivity (PSR sort gate)” value read?
A: low polyreactivity

Q: With “QVQLVESGGGLVQAGGSLRLSCAASGFTFSYYAMGWYRQAPGKERELVARISFSGTRTYYADSVKGRFTISRDNAKNTVYLQMNSLKPEDTAVYYCAARFGYVGITARYDYWGQGTQVTVSS” as the sequence, how does the “polyreactivity (PSR sort gate)” value read?
A: high polyreactivity

Q: With “QVQLVESGGGLVQAGGSLRLSCAASGSIFEWYAMGWYRQEPGKERELVADITYNGGSTYYADSVKGRFTISRDNAKNTVYLQMNSLKPEDSAVYYCNKDIERYVSIYDSWGQGTQVTVSS” as the sequence, how does the “polyreactivity (PSR sort gate)” value read?
A: low polyreactivity

Q: Which “polyreactivity (PSR sort gate)” value does the source give for “QVQLVESGGRLLQAGGSLRLSCAASGIIFVYYDMGWYRQAPGKERELVAVITESGVSTYYADSVKGRFTISRDNAKKTVYLQMNSLKPEDTAVYYCDTSVDRGLGYWGQGTQVTVSS” here?
A: low polyreactivity

Q: With “QVQLVESGGGLVQAGGSLRISCAASGRTFDPYAMGWYRQAPGKERELVAAITSGGSTYYADTVKGRFTISRDNAKNTVYLQMNSLTPEDTAVYYCAKPYYRLEDYWGQGTQVTVSS” as the sequence, how does the “polyreactivity (PSR sort gate)” value read?
A: low polyreactivity

Q: For “QVQLVQAGGGLVQAGGILRLSCAASGFTFQEYAMGWYRQAPGKAREFVAAITYSGGSTYADSVKGRFTISRDNAKNTVYLQMNSLKPEDTAVYYCNAQVYYSVRGYPYGYYRNDYWGQGTQVTVSS”, which “polyreactivity (PSR sort gate)” value is on record?
A: low polyreactivity

Q: With “QVQLVESGGGLVQAGGSLPLTCAASGLTFYDYPMGWYRKATVKERELVAAIRRSGTRTYYADSVKGRFTISRDYAKNTVYLQMNSLKPEDTAVYYCNTVRRLKRYSSYGHDYWGQGTQVTVSS” as the sequence, how does the “polyreactivity (PSR sort gate)” value read?
A: high polyreactivity

Q: With “QVQLVESGGGLVQAGGSLRLSCAASGFIFRTYAMGWYRQAPGKERELVAAISRGGGTTYYADSVKGRFTISRDNAKNTVYFQMNSLKPEDTAFYYCAAYSQYLKRDYWGQGTQVTVSS” as the sequence, how does the “polyreactivity (PSR sort gate)” value read?
A: high polyreactivity

Q: Which “polyreactivity (PSR sort gate)” value does the source give for “QVQLGESGGGLVQAGGSLRLSCAASGRTFVDNHMGWYRQAPGKERELVAAITWRGGGTYYADSVKGRFTISRYNAKNTVYLQMNSLKPEDTAVYYSAADQRPPFVEPRGLSTGEFDYWGQGTQVTVSS” here?
A: low polyreactivity

Q: With “QVQLVDSGGGLVQAGGSLRLSCAASGRTFSPYMGWYRQAPGKEREFVAAISKSGGRTYYADSVKGRFTISRDNAKNTVYVQMNSLKPEDTAVYYCAAGAWRGPYSGYYYWGQGTQVTVSS” as the sequence, how does the “polyreactivity (PSR sort gate)” value read?
A: low polyreactivity

Q: For “QFQLVESGGGLVQAGGSLRLSCAASGFTLRTYAMGWYRQAPGKERELVAAITVSGGTYYADSVKGRFTISRDNAKYTVYLQMNSLKPEDTAVYYCTAKRFGTGFDYWGQGTQVTVSS”, which “polyreactivity (PSR sort gate)” value is on record?
A: low polyreactivity

Q: With “QVQLVESGGGLVQAGGSLRLSCAASGIIFWRYAMGWYRQAPGKERELVATITSGGSTDYADSVKGRFTISRDNAKNTVYLQMNSLKPEDTEVYYCAALGYATGYWRYYYWGQGTQVTVSS” as the sequence, how does the “polyreactivity (PSR sort gate)” value read?
A: low polyreactivity

Q: Which “polyreactivity (PSR sort gate)” value does the source give for “QVQLVESGGGLVQAGGSLRLSCAASGSNFFSNAMGWYRQAPGKERELVAAITSSGASTYYADSVKGRFTISRDNAKNTVYLQMNSLKPEDTAVYYCAVVGGGKRYGYWGQGTQVTVSS” here?
A: high polyreactivity

Q: With “QVQLVESGGGLVQAGGSLRLSCAASGRIFYYYAMGWYRQAPGKERELVAAISQRGGRTYYADSVKGRFTISRDNAKNTVYLQMNSLKPEDTAVYYCNDYPVYGRYTHYGYGHWGQGTQVTVSS” as the sequence, how does the “polyreactivity (PSR sort gate)” value read?
A: high polyreactivity

Q: With “QVQLVESEGGLVQAGGSLRLSCAASGRTYYAMGWYRQAPGKERELVAAISGTGASTYYADSVKGRFTISRDNAKNTVYLQMNSLKPEDTAVYYCAAEWFYYNTQQWFDYWGQGTQVPVSS” as the sequence, how does the “polyreactivity (PSR sort gate)” value read?
A: low polyreactivity

Q: For “QVQLVESGGGLVQAGGSLRLSCSASGNNFESYGMGWYRQAPGKERELVATINTSSGSTNYADSVKGRFTISRDNAKNTVYVQMNSLKPEDTAVYYCAAVFVEQGEDDYWGQGTQVTVSS”, which “polyreactivity (PSR sort gate)” value is on record?
A: low polyreactivity

Q: For “QVQHVESGGGLVQAGGSLRLSCAAYGFTFVRYAKGWYRQAPGKEREFVASISARGGNTFYADSVKGRFTISRDNAKNTVFLQMNSLKPEDTAVYYCAKRGPYGTGYGYWGQGTQVTVSS”, which “polyreactivity (PSR sort gate)” value is on record?
A: high polyreactivity

Q: With “QVQLVESGGGLVQAGGSLRLSCASSGRTFFKNALGWYRQSPGKERELVARISWNGGDSTYYADSVKGRFTISRDNAKITVFFQMISLKPEDTAVYYCAADTSYRQGGSRHGYVYWGQGTQVTVSS” as the sequence, how does the “polyreactivity (PSR sort gate)” value read?
A: low polyreactivity

Q: With “QVQLVESGGGLVQAGGSLRLSCAASGFIFRGYAMGWYRQAPGKERELVAAISRSGGSTYYADSVKGRFTISRDNAKNTVYLQMNSLKPEDTAVYYCAARSFYSKGYDYWGQGTQVTVSS” as the sequence, how does the “polyreactivity (PSR sort gate)” value read?
A: high polyreactivity

Q: For “QVQLVESGGGLVQAGGSLRLSCAASGRIFWYNAMGWYRQAPGKERELVATITSAGDTNYADSVKGRFTISRDNAKNTVFLQMNSLKPEDTAVYYCAKYYRWLITRRGSNDYWGQGTQVTVSS”, which “polyreactivity (PSR sort gate)” value is on record?
A: high polyreactivity

Q: With “QVQLVESGGGLVQAGGSLRLSCAASGSTFYINAMGWYRQAPGKERELVADITVRGGNTYYADSVKGRFTISRDNAKNTVYLQMNSLKPEDTAVYYCAADDWGFWYDYWGQGTQVTVSS” as the sequence, how does the “polyreactivity (PSR sort gate)” value read?
A: high polyreactivity

Q: Which “polyreactivity (PSR sort gate)” value does the source give for “QVQLVESGGGLVQAGGSLRLSCAASGFTFWTYDMGWYRQAPGKERELVAAISTSGGSTYYADSVKGRFTISRDNAKNTVYLQMNSLKPEDTAVYYCAAYAIGEHFRARYGYWGQGTQVTVSS” here?
A: high polyreactivity

Q: With “QVQLEESGGGLVHAGGSLRLTCDAYGYIFALNPIVWNRQAPGNESEVVAAINDSGDSTYYADSLKGRFTISRDNSKNTVYLQMNSLNPEDSAVYYCAADTRYRYGAFPYYEYDNWGQGTQVTVSS” as the sequence, how does the “polyreactivity (PSR sort gate)” value read?
A: low polyreactivity

Q: With “QVQLVESGRGLVQAGGSLRLSCAASGRTFYYYTMGWYRQAPGKERELVAAISYSGGSTSYADSVKGRFTISRYNAKNTVYLQMNRLKPEDTAVYYCNAPYKYYTQRRYHYDYCGQGTQVTVSS” as the sequence, how does the “polyreactivity (PSR sort gate)” value read?
A: high polyreactivity

Q: For “QVQLVESGGGLVQAGGSLRLSCAASGLIFSYYAMGWYRQAPGKERELVAAITGSGGTTYYADSVMGRFTISRDNANNTVYLQMNSLKPEDTAVYYCATPPPEVWQRWYREYDYWGQGTQVTVSS”, which “polyreactivity (PSR sort gate)” value is on record?
A: low polyreactivity

Q: With “QVQLVESGGGLVQAGGSLRLSCAASGSIFPGYPMGWYRQAPGKERELVAAISRSGGITYYADSVKGRFTISRDNAKNTVYLQMNSLKPEDTAVYYCAKTLPSNGHYDYWGQGTQVTVSS” as the sequence, how does the “polyreactivity (PSR sort gate)” value read?
A: low polyreactivity

Q: For “QVQLVESGGGLVQAGGSLRLSCAASGRIFAGYAMGWSRQAPGKERELVASIRSSGSTYYADSVKGRFTISRDNAKNTVYLQMNSLKPEDTAVYYCATTGRRWYYPYHYWGQGTQVTVSS”, which “polyreactivity (PSR sort gate)” value is on record?
A: high polyreactivity

Q: For “QVQLVESGGGLVQAGCILRLSCAASGRIFNYYTMGWYRQAPGKEMELVAAITRTGGNTYYADSVKGRFTISRDNAKNTVYLKMNSLEPEDTAVYDCNVVWLNQREYYYWGQGTHVTVSS”, which “polyreactivity (PSR sort gate)” value is on record?
A: high polyreactivity

Q: Which “polyreactivity (PSR sort gate)” value does the source give for “QVQLVESAGGIVQAGGSLRLSCAASGSTFGVYAMGLYRQAPGKERELVASISSGDSTTYADSVKGRFTISRDNAKNTVYFQMNSLKPDVTAVYYCNAVYYTGYYWGHGTQVTVSS” here?
A: low polyreactivity

Q: For “QVQLVESGGGLVQAGGSLRLSCAASGFTFWTYAMGWYRQAPGKERELVAAIDSGGSTYYADSVKGRFTISRDNAKNTVYLQMNSLKPEDTAVYYCNAGPSVTSGYDYDYWGQGTQVTVSS”, which “polyreactivity (PSR sort gate)” value is on record?
A: low polyreactivity

Q: Which “polyreactivity (PSR sort gate)” value does the source give for “QVQLVESGGGLVQAGGSLRLSCAASGSNFKTYAMGLYRQAPGKERELVAAISSGGSTYYADSVKGRFTISRDNAKITVYLQMNSLKPEDTAVYYCAADPWGAFVSFASYYYWGQATQVTVSS” here?
A: low polyreactivity

Q: For “QVQLVESGGGLVQAGGSLRLSCAASGSTFSKYAMGWYRQAPGKERELVAAITRTTGRTYYADSVKGRFSISRDNAKNTVYLHMNSLKPEDTAVDYCAARSPYYRAYKYDYWGQGTQVTVSS”, which “polyreactivity (PSR sort gate)” value is on record?
A: high polyreactivity

Q: Which “polyreactivity (PSR sort gate)” value does the source give for “QVQLVESGGGLVQAGGSLRLSCAASGRTFAAYAMGWYRQAPGKERELVAAISRGGGRTYYADSVKGRFTISRDNAKNTVYLQMNSLKPEDTAVYYCNAVRPRDNGSWGQGTQVTVSS” here?
A: high polyreactivity

Q: Which “polyreactivity (PSR sort gate)” value does the source give for “QVQLVESRGGLVQAGGSLRLSCAASGFIFWRYAMGWYRQAPGKERELVASITYSGGRTYYADSVKGRFTISRDNAKNTVYLQMNILKPEDTAVYYCATARYRYHYYSWGQGTQVTVSS” here?
A: high polyreactivity

Q: For “QVQLVESGGGLVQAGGSLRLSCAASGSIFYYYVMGWYRQAPGKEREFVAAISWGGDSTYYADSVKGRFTISRDNAKNTVYLQMNSLKPEDTAVYYCAAVRYNSRVSTTPSEMYYWGQGTQVTVSS”, which “polyreactivity (PSR sort gate)” value is on record?
A: low polyreactivity

Q: Which “polyreactivity (PSR sort gate)” value does the source give for “QVQLVESGGGLVQAGGSLRLSCAASGFISKYYAMVWYRQAPGKERELVAAITRSGTSTYYADSVKGRFTISRDNAKNTVYLQMNSLTPEDTAVYYCAAVSGGRTPRYYYWGQGTQVTVSS” here?
A: high polyreactivity

Q: For “QVQLVESGGGLVQAGVSLRISCAASGFIFYYYAMGWYRQAPGKERELVAAISWSGGSTYYADSVKGRFTISRDNAKNTVYLQLNSLKPEDTSVYYCNARFRYARYSQRYDYWGQGTQVTVSS”, which “polyreactivity (PSR sort gate)” value is on record?
A: high polyreactivity
